According to US20160039904A1, “STABILIZED SINGLE HUMAN CD4 DOMAINS AND FUSION PROTEINS” (priority 2013, published 2016):

Tests used:
Assay in all cases: cell-based or functional assay
[1] = biological target: HIV-1 Env of isolate CNE23 (HIV-1)
[2] = biological target: HIV-1 Env of isolate CNE55 (HIV-1)
[3] = biological target: HIV-1 Env of isolate YN192.31 (HIV-1)
[4] = biological target: HIV-1 Env of isolate CNE6 (HIV-1)
[5] = biological target: HIV-1 Env of isolate CNE9 (HIV-1)
[6] = biological target: HIV-1 Env of isolate CNE20 (HIV-1)
[7] = biological target: HIV-1 Env of isolate CNE40 (HIV-1)
[8] = biological target: HIV-1 Env of isolate CH120 (HIV-1)
[9] = biological target: HIV-1 Env of isolate CNE58 (HIV-1)
[10] = biological target: HIV-1 Env of isolate CH91 (HIV-1)
[11] = biological target: HIV-1 Env of isolate CNE53 (HIV-1)
[12] = biological target: HIV-1 Env of isolate CNE17 (HIV-1)
[13] = biological target: HIV-1 Env of isolate CNE68 (HIV-1)
[14] = biological target: HIV-1 Env of isolate CNE11 (HIV-1)
[15] = biological target: HIV-1 Env of isolate CNE66 (HIV-1)
[16] = biological target: HIV-1 Env of isolate CH119 (HIV-1)
[17] = biological target: HIV-1 Env of isolate CH64 (HIV-1)
[18] = biological target: HIV-1 Env of isolate CNE59 (HIV-1)
[19] = biological target: HIV-1 Env of isolate CNE3 (HIV-1)
[20] = biological target: HIV-1 Env of isolate CNE15 (HIV-1)
[21] = biological target: HIV-1 Env of isolate CNE65 (HIV-1)
[22] = biological target: HIV-1 Env of isolate CH110 (HIV-1)
[23] = biological target: HIV-1 Env of isolate AE03 (HIV-1)
[24] = biological target: HIV-1 Env of isolate CH114 (HIV-1)
[25] = biological target: HIV-1 Env of isolate CNE16 (HIV-1)
[26] = biological target: HIV-1 Env of isolate CNE64 (HIV-1)
[27] = biological target: HIV-1 Env of isolate CNE7 (HIV-1)
[28] = biological target: HIV-1 Env of isolate CNE30 (HIV-1)
[29] = biological target: HIV-1 Env of isolate AE20 (HIV-1)
[30] = biological target: HIV-1 Env of isolate CNE1 (HIV-1)
[31] = biological target: HIV-1 Env of isolate CNE57 (HIV-1)
[32] = biological target: HIV-1 Env of isolate CNE49 (HIV-1)
[33] = biological target: HIV-1 Env of isolate CNE46 (HIV-1)
[34] = biological target: HIV-1 Env of isolate GX2010.36 (HIV-1)
[35] = biological target: HIV-1 Env of isolate CNE4 (HIV-1)
[36] = biological target: HIV-1 Env of isolate CNE5 (HIV-1)
[37] = biological target: HIV-1 Env of isolate CNE47 (HIV-1)
[38] = biological target: HIV-1 Env of isolate CH117 (HIV-1)
[39] = biological target: HIV-1 Env of isolate CNE107 (HIV-1)
[40] = biological target: HIV-1 Env of isolate CNE14 (HIV-1)
[41] = biological target: HIV-1 Env of isolate CH70 (HIV-1)

4Dm2m (Fc fusion)
neutralization IC50 [1]: 0.49 nM
neutralization IC90 [1]: 4.9 nM
neutralization IC50 [2]: 0.45 nM
neutralization IC90 [2]: 10 nM
neutralization IC50 [3]: 0.89 nM
neutralization IC90 [3]: 21 nM
neutralization IC50 [4]: 0.33 nM
neutralization IC90 [4]: 2.3 nM
neutralization IC50 [5]: 0.22 nM
neutralization IC90 [5]: 3.2 nM
neutralization IC50 [6]: 0.05 nM
neutralization IC90 [6]: 5.3 nM
neutralization IC50 [7]: 0.01 nM
neutralization IC90 [7]: 0.11 nM
neutralization IC50 [8]: 0.33 nM
neutralization IC90 [8]: 6.6 nM
neutralization IC50 [9]: 2.1 nM
neutralization IC90 [9]: > 28 nM
neutralization IC50 [10]: 0.39 nM
neutralization IC90 [10]: 10 nM
neutralization IC50 [11]: 0.24 nM
neutralization IC90 [11]: 5.5 nM
neutralization IC50 [12]: 0.11 nM
neutralization IC90 [12]: 2.4 nM
neutralization IC50 [13]: 0.11 nM
neutralization IC90 [13]: 0.78 nM
neutralization IC50 [14]: 0.33 nM
neutralization IC90 [14]: 2.6 nM
neutralization IC50 [15]: 0.17 nM
neutralization IC90 [15]: 7.7 nM
neutralization IC50 [16]: 0.17 nM
neutralization IC90 [16]: 3.4 nM
neutralization IC50 [17]: 0.17 nM
neutralization IC90 [17]: 1.6 nM
neutralization IC50 [18]: 0.17 nM
neutralization IC90 [18]: 2.7 nM
neutralization IC50 [19]: 0.39 nM
neutralization IC90 [19]: 2.8 nM
neutralization IC50 [20]: 0.29 nM
neutralization IC90 [20]: 2.6 nM
neutralization IC50 [21]: 0.28 nM
neutralization IC90 [21]: 3.3 nM
neutralization IC50 [22]: 0.11 nM
neutralization IC90 [22]: 0.83 nM
neutralization IC50 [23]: 0.67 nM
neutralization IC90 [23]: 12 nM
neutralization IC50 [24]: 0.11 nM
neutralization IC90 [24]: 4 nM
neutralization IC50 [25]: 0.08 nM
neutralization IC90 [25]: 1.2 nM
neutralization IC50 [26]: 0.56 nM
neutralization IC90 [26]: 3.2 nM
neutralization IC50 [27]: 0.18 nM
neutralization IC90 [27]: 1.8 nM
neutralization IC50 [28]: 0.07 nM
neutralization IC90 [28]: 0.44 nM
neutralization IC50 [29]: 0.72 nM
neutralization IC90 [29]: 5.8 nM
neutralization IC50 [30]: 0.11 nM
neutralization IC90 [30]: 0.61 nM
neutralization IC50 [31]: 1.2 nM
neutralization IC90 [31]: 19 nM
neutralization IC50 [32]: 0.05 nM
neutralization IC90 [32]: 0.56 nM
neutralization IC50 [33]: 0.27 nM
neutralization IC90 [33]: 9.4 nM
neutralization IC50 [34]: 0.11 nM
neutralization IC90 [34]: 18 nM
neutralization IC50 [35]: 0.11 nM
neutralization IC90 [35]: 2.4 nM
neutralization IC50 [36]: 0.67 nM
neutralization IC90 [36]: 8.7 nM
neutralization IC50 [37]: 0.11 nM
neutralization IC90 [37]: 2.8 nM
neutralization IC50 [38]: 0.33 nM
neutralization IC90 [38]: 15 nM
neutralization IC50 [39]: 0.52 nM
neutralization IC90 [39]: 18 nM
neutralization IC50 [40]: 0.17 nM
neutralization IC90 [40]: 2.4 nM
neutralization IC50 [41]: 0.11 nM
neutralization IC90 [41]: 1.2 nM

T20 (enfuvirtide) (peptide)
neutralization IC50 [1]: 15 nM
neutralization IC90 [1]: 228 nM
neutralization IC50 [2]: 26 nM
neutralization IC90 [2]: 549 nM
neutralization IC50 [3]: 42 nM
neutralization IC90 [3]: 336 nM
neutralization IC50 [4]: 1.4 nM
neutralization IC90 [4]: 15 nM
neutralization IC50 [5]: 1.7 nM
neutralization IC90 [5]: 14 nM
neutralization IC50 [6]: 5.5 nM
neutralization IC90 [6]: 41 nM
neutralization IC50 [7]: 4.9 nM
neutralization IC90 [7]: 108 nM
neutralization IC50 [8]: 11 nM
neutralization IC90 [8]: 443 nM
neutralization IC50 [9]: 54 nM
neutralization IC90 [9]: 745 nM
neutralization IC50 [10]: 8.6 nM
neutralization IC90 [10]: 310 nM
neutralization IC50 [11]: 51 nM
neutralization IC90 [11]: 721 nM
neutralization IC50 [12]: 42 nM
neutralization IC90 [12]: 676 nM
neutralization IC50 [13]: 32 nM
neutralization IC90 [13]: 321 nM
neutralization IC50 [14]: 3.5 nM
neutralization IC90 [14]: 36 nM
neutralization IC50 [15]: 129 nM
neutralization IC90 [15]: 729 nM
neutralization IC50 [16]: 2 nM
neutralization IC90 [16]: 25 nM
neutralization IC50 [17]: 3.1 nM
neutralization IC90 [17]: 25 nM
neutralization IC50 [18]: 1.4 nM
neutralization IC90 [18]: 17 nM
neutralization IC50 [19]: 5.6 nM
neutralization IC90 [19]: 38 nM
neutralization IC50 [20]: 14 nM
neutralization IC90 [20]: 157 nM
neutralization IC50 [21]: 5.9 nM
neutralization IC90 [21]: 78 nM
neutralization IC50 [22]: 4.3 nM
neutralization IC90 [22]: 262 nM
neutralization IC50 [23]: 304 nM
neutralization IC90 [23]: 510 nM
neutralization IC50 [24]: 102 nM
neutralization IC90 [24]: > 750 nM
neutralization IC50 [25]: 14 nM
neutralization IC90 [25]: 169 nM
neutralization IC50 [26]: 1.9 nM
neutralization IC90 [26]: 16 nM
neutralization IC50 [27]: 4.3 nM
neutralization IC90 [27]: 58 nM
neutralization IC50 [28]: 26 nM
neutralization IC90 [28]: 285 nM
neutralization IC50 [29]: 212 nM
neutralization IC90 [29]: 572 nM
neutralization IC50 [30]: 1.6 nM
neutralization IC90 [30]: 17 nM
neutralization IC50 [31]: 2.5 nM
neutralization IC90 [31]: 24 nM
neutralization IC50 [32]: 9.1 nM
neutralization IC90 [32]: 236 nM
neutralization IC50 [33]: 26 nM
neutralization IC90 [33]: 743 nM
neutralization IC50 [34]: 255 nM
neutralization IC90 [34]: > 750 nM
neutralization IC50 [35]: 1.7 nM
neutralization IC90 [35]: 14 nM
neutralization IC50 [36]: 2.1 nM
neutralization IC90 [36]: 19 nM
neutralization IC50 [37]: 4.9 nM
neutralization IC90 [37]: 42 nM
neutralization IC50 [38]: 2.3 nM
neutralization IC90 [38]: 34 nM
neutralization IC50 [39]: 3.8 nM
neutralization IC90 [39]: 45 nM
neutralization IC50 [40]: 9.7 nM
neutralization IC90 [40]: 305 nM
neutralization IC50 [41]: 65 nM
neutralization IC90 [41]: > 750 nM
